Laboratory results as given in patent US7056508 (NEW YORK UNIVERSITY, dated 2006).

B1: K2AP fusion protein (amino acids 1-639 of the RPTPκ proprotein fused to human placental alkaline phosphatase) (other)
chain: ALGQFSAGGCTFDDGPGACDYHQDLYDDFEWVHVSAQEPHYLPPEMPQGSYMVVDSSNHDPGEKARLQLPTMKENDTHCIDFSYLLYSQKGLNPGTLNILVRVNKGPLANPIWNVTGFTGRDWLRAELAVSTFWPNEYQVIFEAEVSGGRSGYIAIDDIQVLSYPCDKSPHFLRLGDVEVNAGQNATFQCIATGRDAVHNKLWLQRRNGEDIPVAQTKNINHRRFAASFRLQEVTKTDQDLYRCVTQSERGSGVSNFAQLIVREPPRPIAPPQLLGVGPTYLLIQLNANSIIGDGPIILKEVEYRMTSGSWTETHAVNAPTYKLWHLDPDTEYEIRVLLTRPGEGGTGLPGPPLITRTKCAEPMRTPKTLKIAEIQARRIAVDWESLGYNITRCHTFNVTICYHYFRGHNESRADCLDMDPKAPQHVVNHLPPYTNVSLKMILTNPEGRKESEETIIQTDEDVPGPVPVKSLQGTSFENKIFLNWKEPLEPNGIITQYEVSYSSIRSFDPAVPVAGPPQTVSNLWNSTHHVFMHLHPGTTYQFFIRASTVKGFGPATAINVTTNISAPSLPDYEGVDASLNETATTITVLLRPAQAKGAPISAYQIVVEQLHPH
notes: Secreted from baculovirus-infected High-Five cells and about 90% pure; K2AP-a was eluted at alkaline pH and K2AP-b with 50% ethylene glycol; they are the same protein; also called K2AP-a; K2AP-b; not shown: human placental alkaline phosphatase, fused in-frame as a tag
B2: secreted alkaline phosphatase (AP) control protein (enzyme, human, UniProt P05187 23-511, looked up)
chain: IIPVEEENPDFWNREAAEALGAAKKLQPAQTAAKNLIIFLGDGMGVSTVTAARILKGQKKDKLGPEIPLAMDRFPYVALSKTYNVDKHVPDSGATATAYLCGVKGNFQTIGLSAAARFNQCNTTRGNEVISVMNRAKKAGKSVGVVTTTRVQHASPAGTYAHTVNRNWYSDADVPASARQEGCQDIATQLISNMDIDVILGGGRKYMFRMGTPDPEYPDDYSQGGTRLDGKNLVQEWLAKRQGARYVWNRTELMQASLDPSVTHLMGLFEPGDMKYEIHRDSTLDPSLMEMTEAALRLLSRNPRGFFLFVEGGRIDHGHHESRAYRALTETIMFDDAIERAGQLTSEEDTLSLVTADHSHVFSFGGYPLRGSSIFGLAPGKARDRKAYTVLLYGNGPGYVLKDGARPDVTESESGSPEYRQQSAVPLDEETHAGEDVAVFARGPQAHLVHGVQEQTFIAHVMAFAACLEPYTACDLAPPAGTTDAAHPG
notes: About 50% pure; also called alkaline phosphatase control protein
B3: murine receptor-type protein tyrosine phosphatase-κ (RPTPκ) precursor protein (receptor)
chain: ALGQFSAGGCTFDDGPGACDYHQDLYDDFEWVHVSAQEPHYLPPEMPQGSYMVVDSSNHDPGEKARLQLPTMKENDTHCIDFSYLLYSQKGLNPGTLNILVRVNKGPLANPIWNVTGFTGRDWLRAELAVSTFWPNEYQVIFEAEVSGGRSGYIAIDDIQVLSYPCDKSPHFLRLGDVEVNAGQNATFQCIATGRDAVHNKLWLQRRNGEDIPVAQTKNINHRRFAASFRLQEVTKTDQDLYRCVTQSERGSGVSNFAQLIVREPPRPIAPPQLLGVGPTYLLIQLNANSIIGDGPIILKEVEYRMTSGSWTETHAVNAPTYKLWHLDPDTEYEIRVLLTRPGEGGTGLPGPPLITRTKCAEPMRTPKTLKIAEIQARRIAVDWESLGYNITRCHTFNVTICYHYFRGHNESRADCLDMDPKAPQHVVNHLPPYTNVSLKMILTNPEGRKESEETIIQTDEDVPGPVPVKSLQGTSFENKIFLNWKEPLEPNGIITQYEVSYSSIRSFDPAVPVAGPPQTVSNLWNSTHHVFMHLHPGTTYQFFIRASTVKGFGPATAINVTTNISAPSLPDYEGVDASLNETATTITVLLRPAQAKGAPISAYQIVVEQLHPHRTKREAGAMECYQVPVTYQNALSGGAPYYFAAELPPGNLPEPAPFTVGDNRTYKGFWNPPLAPRKGYNIYFQAMSSVEKETKTQCVRIATKAAATEEPEVIPDPAKQTDRVVKIAGISAGILVFILLLLVVIVIVKKSKLAKKRKDAMGNTRQEMTHMVNAMDRSYADQSTLHAEDPLSLTFMDQHNFSPRLPNDPLVPTAVLDENHSATAESSRLLDVPRYLCEGTESPYQTGQLHPAIRVADLLQHINLMKTSDSYGFKEEYESFFEGQSASWDVAKKDQNRAKNRYGNIIAYDHSRVILQPVEDDPSSDYINANYIDIWLYRDGYQRPSHYIATQGPVHETVYDFWRMVWQEQSACIVMVTNLVEVGRVKCYKYWPDDTEVYGDFKVTCVEMEPLAEYVVRTFTLERRGYNEIREVKQFHFTGWPDHGVPYHATGLLSFIRRVKLSNPPSAGPIVVHCSAGAGRTGCYIVIDIMLDMAEREGVVDIYNCVKALRSRRINMVQTEEQYIFIHDAILEACLCGETAIPVCEFKAAYFDMIRIDSQTNSSHLKDEFQTLNSVTPRLQAEDCSIACLPRNHDKNRFMDMLPPDRCLPFLITIDGESSNYINAALMDSYRQPAAFIVTQYPLPNTVKDFWRLVYDYGCTSIVMLNEVDLSQGCPQYWPEEGMLRYGPIQVECMSCSMDCDVINRIFRICNLTRPQEGYLMVQQFQYLGWASHREVPGSKRSFLKLILQVEKWQEECEEGEGRTIIHCLNGGGRSGMFCAIGIVVEMVKRQNVVDVFHAVKTLRNSKPNMVEAPEQYRFCYDVALEYLESS
notes: Full-length cDNA expressed in HeLa, COS, Drosophila S2 and rat L6 cells, tested on cells or in their lysates; It is partly cleaved at RTKR (640-643) into 110 kDa and 100 kDa products; also called RPTPase-κ; wt RPTPκ

Key:
[1] = target: B3; assay: cell-to-substrate adhesion, L6 cells on a K2AP-coated surface
[2] = target: B3; assay: cell-to-substrate adhesion, induced S2-R-PTP-κ cells on the coated dish
[3] = target: [32P]-tyrosine phosphorylated myelin basic protein; assay: cell-based or functional assay
[32P]-tyrosine phosphorylated myelin basic protein, sequence (P02687 whole entry): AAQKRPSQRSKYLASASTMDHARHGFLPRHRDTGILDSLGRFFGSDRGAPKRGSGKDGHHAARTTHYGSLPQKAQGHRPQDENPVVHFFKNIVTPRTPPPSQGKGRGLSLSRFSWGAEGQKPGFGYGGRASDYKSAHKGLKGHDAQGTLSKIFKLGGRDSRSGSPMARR

[4] = target: the molecule itself; assay: co-aggregation of diI-labelled and unlabelled S2 cells, fluorescence microscopy
Excerpt: FIGS. 23A–23C. […] Two different cell populations, one of which had been labeled with the fluorescent dye diI (J. Schiessinger et al. Science 195, 307, (1977)), were allowed to co-aggregate and the resulting aggregates inspected by visible and fluorescence microscopy. diI-fluorescence is white in the photographs.

B1
fold increase in adhesive capacity (RPTPκ-overexpressing L6 cells against parental L6 cells) [1]: 2.7 fold

B2
binding result [2]: no binding (tested: 20 g/ml (so in the source) spotted)

B3
PTPase activity in immune complexes (release of [32P]-phosphate) [3]: ~3 fold
binding result [4]: binds
